Publication PMC2807033, “Rep Provides a Second Motor at the Replisome to Promote Duplication of Protein-Bound DNA” (Molecular Cell, 2009)
No end group written: not given here. *: point of attachment. Biotin = O=C1N[C@H]2[C@H](CS[C@H]2CCCCC(=O)*)N1

Biological target: T1, E. coli replicative helicase DnaB, purified (E. coli, UniProt P0ACB0 1-471)
T1 construct: replicative helicase DnaB, E. coli; Construct and purification are in the Supplemental Experimental Procedures; also called E. coli DnaB
Assay: not stated; apparent KD (equilibrium dissociation constant), Figure S5; the method is not told in the text shown (SPR is the only quantitative binding method that the paper names)
Conditions: both partners purified

T1 sequence (P0ACB0 whole entry): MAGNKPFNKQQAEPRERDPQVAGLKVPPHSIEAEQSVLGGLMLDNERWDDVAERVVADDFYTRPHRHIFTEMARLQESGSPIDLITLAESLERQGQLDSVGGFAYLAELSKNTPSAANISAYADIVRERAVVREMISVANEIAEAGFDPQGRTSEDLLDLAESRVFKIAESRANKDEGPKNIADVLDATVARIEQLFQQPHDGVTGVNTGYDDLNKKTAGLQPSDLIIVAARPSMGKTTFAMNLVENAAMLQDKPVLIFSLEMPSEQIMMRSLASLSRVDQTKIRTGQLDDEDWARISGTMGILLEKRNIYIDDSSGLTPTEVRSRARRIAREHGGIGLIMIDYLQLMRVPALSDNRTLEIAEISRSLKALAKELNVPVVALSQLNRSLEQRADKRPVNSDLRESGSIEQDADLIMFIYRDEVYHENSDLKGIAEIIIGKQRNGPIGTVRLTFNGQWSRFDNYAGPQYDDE

B1: C33^Rep peptide (synthetic peptide corresponding to the C-terminal 33 residues of Rep) (peptide, UniProt P09980 641-673, looked up)
peptide: Biotin-EQERKVVSAEERMQKGQSHLANLKAMMAAKRGK
notes: C-terminal 33 residues of Rep helicase, E. coli; also called the Rep C terminus; source: synthetic peptide; not shown: biotin tag, N-terminal, kept
- Kd: < 100 nM
